Earlier results on 1 substance are cited in paper PMC6155412.

The data set has as its target FPR2 (Homo sapiens) (UniProt P25090).
UniProt P25090, sequence (P25090 whole entry): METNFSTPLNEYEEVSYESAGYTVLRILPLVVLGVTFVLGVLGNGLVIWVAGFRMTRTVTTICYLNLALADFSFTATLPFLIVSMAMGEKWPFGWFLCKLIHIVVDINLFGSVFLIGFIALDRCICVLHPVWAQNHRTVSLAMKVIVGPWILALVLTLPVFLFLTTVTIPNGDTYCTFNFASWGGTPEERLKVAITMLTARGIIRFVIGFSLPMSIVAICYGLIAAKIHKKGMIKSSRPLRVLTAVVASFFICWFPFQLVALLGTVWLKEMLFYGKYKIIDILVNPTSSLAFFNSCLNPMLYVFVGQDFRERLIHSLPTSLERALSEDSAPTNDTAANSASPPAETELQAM

For orientation: Kd means the free concentration of one partner at which half of the binding sites on the other are occupied at equilibrium, for simple one-to-one binding. For the substance uteroglobin (UG) (from UniProt P11684), the Kd was 33 nM.
